The RNAGym collection of RNA variant scans (doi:10.7554/elife.90254)

B1: OR4K15 (parent)
chain: GUUAACGGUCAUAGGCCAUGGAAACUAGGAGCACCAUUUCGCUGCCAGUGAAGAAAUGAACAAAGAAAAUCUGGGCCAGGCAGGCAUCAAAAGAAAUAGUCUUGCGCUCAACCAGAAAGUCUGUAAUCAUUUUAAGGGUA

Variants of: B1
Experiment: self-cleavage, relative activity (ratio to wild type); higher = more cleavage; in vitro, sequencing; the parent is a self-cleaving ribozyme
Variant U72G U97G has a self-cleavage of 0.3.
Variant C77A has a self-cleavage of 0.76.
In the case of C77U, the self-cleavage is reported as 1.54.
With A78U U87C the self-cleavage was 0.31.
C77U U130C showed a self-cleavage of 1.61.
Work on A78U G84C yielded a self-cleavage of 0.11.
Variant A78G A96U has a self-cleavage of 0.4.
G73U A118G showed a self-cleavage of 0.02.
A78G C81U showed a self-cleavage of 0.14.
In the case of A78G C81A, the self-cleavage is reported as 0.1.
Variant G74A U127C has a self-cleavage of 0.02.
G75C A126G showed a self-cleavage of 0.12.
For G75C A126C, the self-cleavage was 0.09.
C77U C113U showed a self-cleavage of 0.27.
U72C U127A gave a self-cleavage of 0.19.
U72A U100G gave a self-cleavage of 0.19.
Work on C81U U131C yielded a self-cleavage of 0.37.
Variant U72C has a self-cleavage of 0.12.
With U72G the self-cleavage was 0.12.
Work on G75A G138A yielded a self-cleavage of 0.13.
G75A A135G showed a self-cleavage of 0.04.
C81U A134G showed a self-cleavage of 0.53.
With A78U U103C the self-cleavage was 0.06.
Work on G80A A114U yielded a self-cleavage of 0.05.
C77U U120C showed a self-cleavage of 1.21.
In the case of G73A A94G, the self-cleavage is reported as 0.19.
A78U A89U showed a self-cleavage of 0.35.
U72C G83A gave a self-cleavage of 0.08.
Variant G74A A140U has a self-cleavage of 0.22.
Work on C76A A90G yielded a self-cleavage of 0.14.
C77U A114U showed a self-cleavage of 0.14.
Variant U72C U124C has a self-cleavage of 0.17.
Variant A78C A91C has a self-cleavage of 0.19.
A82C A89G showed a self-cleavage of 0.16.
Variant C77A A78G has a self-cleavage of 0.53.
In the case of G75C A98G, the self-cleavage is reported as 0.07.
Work on A78G A114G yielded a self-cleavage of 0.05.
With A78G U139A the self-cleavage was 0.23.
With A78G U139C the self-cleavage was 0.24.
Work on U72A U131C yielded a self-cleavage of 0.14.
Work on C77U A117G yielded a self-cleavage of 2.83.
Variant C81A U103C has a self-cleavage of 0.13.
Work on A78C U87C yielded a self-cleavage of 0.27.
A78G G80A gave a self-cleavage of 0.13.
G73A A82G gave a self-cleavage of 0.22.
A78G A129U showed a self-cleavage of 0.25.
In the case of A78G A126C, the self-cleavage is reported as 0.09.
C76A A96G gave a self-cleavage of 0.19.
U72C U131C gave a self-cleavage of 0.16.
U72C U131A gave a self-cleavage of 0.1.
Variant G75A A78U has a self-cleavage of 0.09.
C81U U122C showed a self-cleavage of 0.29.
Variant U72C U122A has a self-cleavage of 0.09.
With G73A A92G the self-cleavage was 0.2.
With C76G the self-cleavage was 0.16.
Work on C76U yielded a self-cleavage of 0.05.
In the case of C76A, the self-cleavage is reported as 0.1.
G79U G99A gave a self-cleavage of 0.03.
For U72C C107U, the self-cleavage was 0.01.
With A78U A98G the self-cleavage was 0.06.
For G74U A116U, the self-cleavage was 0.03.
G80A A125U gave a self-cleavage of 0.24.
Variant G74A U103C has a self-cleavage of 0.08.
Work on A78G U108C yielded a self-cleavage of 0.01.
A78G U108A showed a self-cleavage of 0.03.
Variant G79A U127C has a self-cleavage of 0.06.
In the case of A78C U132C, the self-cleavage is reported as 0.33.
U72G A135G showed a self-cleavage of 0.22.
Variant U72C G136A has a self-cleavage of 0.7.
Work on G79U A129G yielded a self-cleavage of 0.04.
With A78C U133C the self-cleavage was 0.24.
A78U U97C showed a self-cleavage of 0.36.
For U72C A114G, the self-cleavage was 2.31.
For C81U U132C, the self-cleavage was 0.5.
With C81A G104A the self-cleavage was 0.67.
Work on U72C U133C yielded a self-cleavage of 0.13.
U72A U102C showed a self-cleavage of 0.58.
In the case of G79U U132C, the self-cleavage is reported as 0.09.
With U72A U120C the self-cleavage was 0.18.
G73A A95G gave a self-cleavage of 0.28.
A78C A82G showed a self-cleavage of 0.11.
For C77U U102A, the self-cleavage was 1.57.
In the case of G74A A117U, the self-cleavage is reported as 0.19.
With G74A A117G the self-cleavage was 0.2.
For A78G U97A, the self-cleavage was 0.27.
A78G U97G gave a self-cleavage of 0.27.
For A78G U100A, the self-cleavage was 0.04.
A78G U100C showed a self-cleavage of 0.31.
Variant G75U A117G has a self-cleavage of 0.15.
G79C U120A showed a self-cleavage of 0.04.
Variant A78G A116G has a self-cleavage of 0.15.
With A78G A91U the self-cleavage was 0.22.
In the case of A78G A91G, the self-cleavage is reported as 0.13.
G75C U122C showed a self-cleavage of 0.12.
C76U A118G showed a self-cleavage of 0.1.
Variant C76A A117G has a self-cleavage of 0.18.
In the case of U72C A111G, the self-cleavage is reported as 0.02.
Work on A78G A98G yielded a self-cleavage of 0.08.
A78G A98U showed a self-cleavage of 0.39.
With A78G A98C the self-cleavage was 0.27.
For G75C U103G, the self-cleavage was 0.02.
G75C U103C showed a self-cleavage of 0.12.
Variant U72G U102A has a self-cleavage of 0.11.
Work on G75A G119A yielded a self-cleavage of 0.17.
In the case of G74C A96G, the self-cleavage is reported as 0.29.
G80A U132C showed a self-cleavage of 0.08.
For C77U U132C, the self-cleavage was 1.95.
For G80A A129U, the self-cleavage was 0.02.
Variant G75U U127C has a self-cleavage of 0.11.
With G79U A96U the self-cleavage was 0.13.
Work on G75U C85U yielded a self-cleavage of 0.21.
With A78U U131C the self-cleavage was 0.17.
For A78G G106A, the self-cleavage was 0.03.
G74C U127C showed a self-cleavage of 0.13.
G80A U108C showed a self-cleavage of 0.01.
Work on G74A A96C yielded a self-cleavage of 0.14.
For G74A A96G, the self-cleavage was 0.24.
For U72C A95G, the self-cleavage was 0.35.
U72C A95U showed a self-cleavage of 0.35.
In the case of G75A U120C, the self-cleavage is reported as 0.02.
G75A A116U gave a self-cleavage of 0.05.
In the case of A78U U139A, the self-cleavage is reported as 0.5.
In the case of A78U U139C, the self-cleavage is reported as 0.28.
Work on G79A A94U yielded a self-cleavage of 0.15.
Variant U72G U120C has a self-cleavage of 0.13.
For G75C A129G, the self-cleavage was 0.07.
Variant A78U A117G has a self-cleavage of 0.36.
With A78U A117U the self-cleavage was 0.3.
In the case of C76U U108A, the self-cleavage is reported as 0.01.
For G79U U87C, the self-cleavage was 0.11.
Work on G74A A125G yielded a self-cleavage of 0.05.
G74U C113A showed a self-cleavage of 0.04.
For C77U A89G, the self-cleavage was 2.1.
Work on U72C U132C yielded a self-cleavage of 0.3.
Work on A78U U130C yielded a self-cleavage of 0.2.
With G74U A111G the self-cleavage was 0.04.
With A78U U127A the self-cleavage was 0.8.
G75A C77U showed a self-cleavage of 0.11.
Variant G74C A111G has a self-cleavage of 0.02.
With G75A A82G the self-cleavage was 0.12.
In the case of G74U U87A, the self-cleavage is reported as 0.15.
For G73U A126G, the self-cleavage was 0.07.
With G75A U87C the self-cleavage was 0.14.
A78U A91U showed a self-cleavage of 0.8.
With A78G A117G the self-cleavage was 0.22.
G73A G79A showed a self-cleavage of 0.17.
In the case of A78C U131C, the self-cleavage is reported as 0.17.
Variant G73U C105U has a self-cleavage of 0.01.
For A78U A114C, the self-cleavage was 0.05.
In the case of G79A A110U, the self-cleavage is reported as 0.24.
With G75U U133A the self-cleavage was 0.15.
Work on C76U U87C yielded a self-cleavage of 0.17.
A78U A135G showed a self-cleavage of 0.3.
For C77U A91G, the self-cleavage was 1.91.
For A78G A82U, the self-cleavage was 0.19.
G75U A126G showed a self-cleavage of 0.08.
In the case of C81A A90G, the self-cleavage is reported as 0.07.
With G75A U103C the self-cleavage was 0.06.
A78C U130C showed a self-cleavage of 0.21.
With G80A A96G the self-cleavage was 0.18.
Variant G79A A129C has a self-cleavage of 0.05.
Work on G79A A129G yielded a self-cleavage of 0.17.
For G79A U132C, the self-cleavage was 0.1.
In the case of C77U A126U, the self-cleavage is reported as 1.88.
G74C A140G showed a self-cleavage of 0.23.
With A78G A89G the self-cleavage was 0.18.
With G74A A82G the self-cleavage was 0.26.
